Assay results as given in patent publication US20170325479A1.

Legend:
H-AAPPA-NH2 = molecular target: T1, H-AAPPA-NH2
T1 chain: AAPPA

[1] = molecular target: T2, beta-lactoglobulin peptide IIAEK
T2 chain: IIAEK

[2] = molecular target: T3, beta-lactoglobulin peptide VYVEELKPTPEGDLEILLQK
T3 chain: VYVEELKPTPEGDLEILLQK

[3] = molecular target: T4, beta-casein tryptic peptide GPFPIIV
T4 chain: GPFPIIV

[4] = molecular target: T5, beta-casein tryptic peptide HKEMPFPK
T5 chain: HKEMPFPK

[5] = molecular target: T6, 33-mer of gliadin (alpha-2-gliadin) (aa56-88)
T6 chain: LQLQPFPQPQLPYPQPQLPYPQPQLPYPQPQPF

B1: proline tolerant tripeptidyl peptidase TRI083 (protein)
chain: QEPSSCKGTLVFEGETFNVFQPDCLRTEYSVDGYTPSVKSGSRIGFGSFLNESASFADQALFEKHFNIPSQNFSVVLINGGTDLPQPPSDANDGEANLDAQTILTIAHPLPITEFITAGSPPYFPDPVEPAGTPNENEPYLQYYEFLLSKSNAEIPQVITNSYGDEEQTVPRSYAVRVCNLIGLLGLRGISVLHSSGDEGVGASCVATNSTTPQFNPIFPATCPYVTSVGGTVSFNPEVAWAGSSGGFSYYFSRPWYQQEAVGTYLEKYVSAETKKYYGPYVDFSGRGFPDVAAHSVSPDYPVFQGGELTPSGGTSAASPVVAAIVALLNDARLREGKPTLGFLNPLIYLHASKGFTDITSGQSEGCNGNNTQTGSPLPGAGFIAGAHWNATKGWDPTTGFGVPNLKKLLALVRF
In the case of B1, the “hydrolysis of substrate followed by LC-MS and label free quantification” value (H-AAPPA-NH2) is reported as “proline tolerant tripeptidyl peptidase over time is able to degrade the peptide AAPPA (FIG. 5) and generate the product AAP (FIG. 6)”, the “digestion measured with LC-MS” value [1] is reported as “shows the digestion of a fragment of β-lactoglobulin (peptide IIAEK) by a proline tolerant tripeptidyl peptidase” and the “digestion measured with LC-MS” value [2] is reported as “shows the digestion of a fragment of β-lactoglobulin (peptide VYVEELKPTPEGDLEILLQK) by a proline tolerant tripeptidyl peptidase”. The “digestion measured with LC-MS” value [3] was “the proline tolerant tripeptidyl peptidase is able to efficiently digest this peptide with proline in the P1′ position and in the P2 position”, the “digestion measured with LC-MS” value (Bradykinin) was “The proline tolerant tripeptidyl peptidase efficiently digests the bradykinin peptide having the amino acid sequence RPPGFSPFR (see FIG. 24)” and the “digestion measured with LC-MS” value [4] was “the peptide HKEMPFPK is also efficiently digested by the proline tolerant tripeptidyl peptidase”. It also gave a Relative MS peak intensities of alpha-2-gliadin (intact substrate), 0 min (relative MS peak intensity) [5] of 100, a Relative MS peak intensities of alpha-2-gliadin (intact substrate), 1 min (relative MS peak intensity) [5] of 10 and a Relative MS peak intensities of alpha-2-gliadin (intact substrate), 3 min (relative MS peak intensity) [5] of 0. It also gave a Relative MS peak intensities of alpha-2-gliadin (intact substrate), 5 min (relative MS peak intensity) [5] of 0, a Relative MS peak intensities of alpha-2-gliadin (intact substrate), 10 min (relative MS peak intensity) [5] of 0 and a Relative MS peak intensities of alpha-2-gliadin (intact substrate), 15 min (relative MS peak intensity) [5] of 0. For the same protein, the Relative MS peak intensities of alpha-2-gliadin (intact substrate), 30 min (relative MS peak intensity) [5] was 0 and the “hydrolysis of substrate followed by LC-MS” value [5] was “proline tolerant tripeptidyl peptidase was found to cleave the substrate alpha-2-gliadin consecutively into tri-peptides irrespective of a high proline content”.
